Reference: the nanobody polyreactivity screen of Harvey et al. (2022)

Experiment: yeast display, Sf9 membrane polyspecificity reagent, FACS + sequencing; frameworks hold sequencing errors
Method in brief: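 After 36–48 hours of galactose induction, yeast (Saccharomyces cerevisiae BJ5465) displaying a synthetic nanobody library were stained at 4 °C for 1 hour with 10% biotinylated, detergent-solubilized Sf9 membrane reagent. Streptavidin microbeads enriched the stained cells before FACS sorting into low and high (top ~1%) gates on anti-HA and streptavidin fluorescence. Each clone's polyreactivity label reflects its gate of origin.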

## QVQLVESGGGLVQARGSLRLSCAASGSTFGGYAMGWYRKAPGKERELVASISAIGGSTYYADSVKGRFTISRDNAKNTFYLQMNSMKPEDTAVYYCAAQRGGGPNDYWGQGTQVTVSS
  polyreactivity (PSR sort gate): high polyreactivity

## QVQLVESGGGLVQAGGSLRLSCAASGRTFGRNAMGWYRQAPRKERELVAAISDRGVSTYYADSVKGRFTISRDNAKNTVYLQMNSLKPEDTAVYYCAAVFWVDILPGDYWGQGTQVTVSS
  polyreactivity (PSR sort gate): low polyreactivity

## QVQLVESGGGLVQAGGSLRLSCADSGSTLIGNAMGWYRQAPGKERELVAAISSGGRTYYADSVKGRFTISRDNAKNTVYLQMNSLKPEDTAVYYCAADTVGTNVVSPELDYWGQGTQVTVSS
  polyreactivity (PSR sort gate): low polyreactivity

## QVQLVESGGGLVQAGGSLRLSCAASGRIFTFYAMGWYRQAPGKERELVARISKRGGSTYYADSVKGRFTISRDYAKNTVYLQRNSLKPEDTAVYYCAKAYDPTTYDYWGQGTQVTVSS
  polyreactivity (PSR sort gate): high polyreactivity

## QVQLVESGGGLVQAGGSLRLSCAASGGIFSYYAMGWYRQAPGKERELVAAITGSGATTYYADSVKGRFTISRDNAKNTVYLQMNSLKPEDTAVYYCAADYWTAFYTLDSWGQGTQVTVSS
  polyreactivity (PSR sort gate): low polyreactivity

## QVQLVESGGGLVQAGCSLRLSCAASGSTIYTYTMGWYRQAPGKERELVAAISSSGGDTYYADSVKGRFTISRDNAKNTVYLQMNSLKPEDTAVYYWDALGAFPSLEFDYWGQGTHVTVSS
  polyreactivity (PSR sort gate): low polyreactivity

## QVQLVESGGGLVQAGGRLLLSCAASGGTFYRNAMGWYRLAPGKERELVASISRTGGSTYYADSVKGRFTISRDNAKNTVYLQMNSMKPEDTAVYYCNALPYSRGRWRPLSAVDYWGQGTQVTVSS
  polyreactivity (PSR sort gate): high polyreactivity

## QVQLVESGGGLVQAGGSLRLSCAASGSTFVRYAMGWYRQAPGKERELVAAITGTGSSTYYADSVKGRFTISRDNAKNTVYLQMNSLKPEDTAVYYCAKRWRTVFGYDYWGQGTQVTVSS
  polyreactivity (PSR sort gate): high polyreactivity

## QVQLVESGGGLVQAGGSLRLSCAASGLTFIYYAMGWYRQAPGKERELVAAISTSGASTYYADSVKGRFTISRDNAKNTVYLQMNSLKPEDTAVYYCNAEYFGEYRDYGYWGQGTQVTVSS
  polyreactivity (PSR sort gate): low polyreactivity

## QVQLVESGGGLVQAGGSLRLSCAASGNTFWDNAMGWYRQAPGKERELVAAIRWSTASTHYADSVKGRFTISRDNAKNTVYFPMNSLKPEDTAVYYCAATDYYYYRDKYYGYDNWGQGTQVTVSS
  polyreactivity (PSR sort gate): low polyreactivity

## QVQLVESGGGLVQAGGSLRLSCAATGRTIHGYAMGWYRQAPGKERELVAAITGTGGRTYYADSVKGRFTISRDNAKNTVYLQMNSLKPEDTAVYYCAARPWIKSGYWGQGTQVTVSS
  polyreactivity (PSR sort gate): high polyreactivity

## QVQLVESGGGLVQAGGSLRLSCVASGRTFSRYAMGWYRPAPGKERELVAAISRRGGSTFYADSVKGRFTISRDNAKNTVYLQMNSLKPEDTAVYYCAAGYITWGSGNWVVTPYDYWGQGTQVTVSS
  polyreactivity (PSR sort gate): high polyreactivity

## QVQLVESGGGLVQAGGSLRLSCSASGFIFDVYAMGWYRPAPGKERELVAAISRSGGSTYYADSVKGRFTISRDNAKNTVYLQMNSLKPEDTAVYYCATVLLNNVDYDYWGQGTQVTVSS
  polyreactivity (PSR sort gate): low polyreactivity

## QVQLVESGGGLVQAGGILRLSCAASGFIFAYYAMGWYRQAPGKEREFVAVITSSGGRTYYADSVKGRFTISRDNAKNTVYLQMNSLNPVDTAVYYCATSRGYANKYYYWGQGSQVTVSS
  polyreactivity (PSR sort gate): low polyreactivity

## QVQLVESGGGLVQAGGSLRLSCAASGSILDSNAMGWYRQAPGKERELVAAITSGGSTYYADSVKGRFTISRDNAKNTVYLQMNSLKPEETAVYYCAAAYLGYGAVQPSYEGGYWGQGTQVTVSS
  polyreactivity (PSR sort gate): low polyreactivity

## QVQLVESGGGLVQEGGSLRLSCAASGSIFNTYAMGRYRQAPGKEREMVAGITKTGSRTYYADSVKGRFTISRDNAKNTVYLQMNSLKPEDTAVYYCNARIWPRSYRYDYWGQGTQVTVSS
  polyreactivity (PSR sort gate): high polyreactivity

## QVQLVESGGGLVQAGGSLRLSCAASGRIFWSYAMGWYRQAPGKERELVAAINSGGSTNYADSVKGRFTISRDNAKNTVYLQMNSLKPEDTAVYYCAAGFYYVYVWLGEYWVQGTQVTVSS
  polyreactivity (PSR sort gate): low polyreactivity

## QVQLVESGGGLVQAGGSLRLSCAASGSIFAGNAMGWYRQAPGKERELVAGITFGDDSTYYADSVKGRFTISRDNAKNTVYLQMNSLKPEDTAVYYCATDLHPYNYYFYHYWVDAAYDYWGQGTQVTVSS
  polyreactivity (PSR sort gate): low polyreactivity

## QVQLVESGGGLVQAGGSLRLTCAATGSTLYFYAMGWYRQAPGKERELVASISGTGGRTDYADSVKGRFTISRDNAKNTVYLQMNSLKPEDTAVYYCAADLIRRYGDGYWGQGTQVTVSS
  polyreactivity (PSR sort gate): high polyreactivity

## QVQLVESGAGLVQAGGSLRLSCAASGRTFWWYAMGWDRQAPGKERELVADINGSGGSTYYADSVKGRFTISRDNAKNTVYLQMICLKPEDTAVYFCAADYYRYIHSVVYSIYDYWGQGTQVTVSS
  polyreactivity (PSR sort gate): low polyreactivity

## QVQLVESGGGLVQEGGSLRLSCAASGIIFGPYVMGWYRQAPGKERELVATISRTGDTYYADSVKGRFTISRDNAKNTVYLQMNSVKPEDTAVYYCNTQDHGYGFTMDYWGQGTQVTVSS
  polyreactivity (PSR sort gate): low polyreactivity

## QVHLVESGGGLVQAGGSLRLSCAASGITFRRNTMGWYRQAPGKERELVATISWRGGNTFYADSVKRRFTISRDNAKNTVYLQMHSLKPEDTAVYYCAVAFKGPSGYQYDYWGQGTQVTVSS
  polyreactivity (PSR sort gate): high polyreactivity

## QVHLVESGGGLVQAGVSLRLSCAASGSIFEGNGMGWYRQAPGKERELVAAITFRSGSTYYADSVKGRFTNSRDNAKNTVYLQMNSLKPEDTAVYYCAADEYYQVSAYDYWGQGTKVTVSS
  polyreactivity (PSR sort gate): low polyreactivity

## QVQLVESGRGLVQAGGSLRLSCAASGSIFGAYVMGWYRQAPGKERELVAAITRRGGSTYYADSVKGRFTISRDNAKNTVYLQMNSLKPEDTAVYYCAARRGAGDGYWGQGTQVNVSS
  polyreactivity (PSR sort gate): high polyreactivity

## QVQLVESGGGLVQAGGSLRLSCAASGRTFRYYTMGWYRQAPGKERELVASISWSGGSTYYADSVKGRFTISRDNAKNTVYLQMNSLKPEDTAVYYCNAVYGYRGVTNMDYWGQGTQVTVSS
  polyreactivity (PSR sort gate): high polyreactivity

## QVQLGESGGGLVQAGGSLRLTCAASGGTFKGYAMGWYRQAPGKERELVAAISWSGVRTYYADSVKGRFTISRDNAKNTVYLQMNSLKPEDTAVYYCAASWLLRMGYWGQGTQVTVSS
  polyreactivity (PSR sort gate): high polyreactivity

## QVQLVESGGGLVQAGGSLRLICAAAGFIFKRYAMGWYRQAPGKERELVAAITSNGGRTYYADSVKGRFTISRDNAKNTVYFQMNSLKPEDTEVYYCARVSQYYEQDDYWGQGTQVTVSS
  polyreactivity (PSR sort gate): high polyreactivity

## QVQLVESRGGLVQAGGSLRLSSASSGSIFDIYEMGRYRQAPGKERELLASITWSRGSTYYADSVKGRFTISRDNAKNSVYLQINCLKPEDTAVYYCGTDKLFGRTVRMDYWGQGTQVTVSS
  polyreactivity (PSR sort gate): low polyreactivity

## QVQLVESGGGLVQAGGSLRLSCAASGITFRRYAMGWYRPAPGKERELVAVISVSGGRTHYADSVKGRFTISRDNAKNTVYLQMNSLKPEDTAVYYCAAQFSYRYYTDEVGYWGQGTQVTVSS
  polyreactivity (PSR sort gate): high polyreactivity

## QVHLVESGGGLVQAGGSLRLSCAASGSTFRYYAMGWYRQAPGKERELVATINRSGGSTYYADSVKGRFTISRDNAKNTVYLQMNSLKPEDTAVYYCAATHYYSHFLWFASNYDYWGQGTQVTVSS
  polyreactivity (PSR sort gate): high polyreactivity

## QVQLVESGGGLVQAGGSLRLSCAASGYIWYNAMRWYRQAPGKERELVAAISWGGGTTYYADSVKGRFTISRDNAKNTVYLQMNSLKPEDTAVYYCAAVDAVGPTSHAMYYWGQGTQVTVSS
  polyreactivity (PSR sort gate): low polyreactivity

## QVQLVESGGGLVQAGGSLRLSCAASVFIFGTNAMGWYRQAPGKERELVASISSTGGSTYYADSVKGRLTISRDNAKNTVYLQMNSLIPEDNAVSFCASDHYPEYIRYVPGVDYWGQGTQVTVSS
  polyreactivity (PSR sort gate): low polyreactivity

## QVQLVESGGGLVQAGGSLRLSCAASGFTFTGYAMGWYRQAPGKERELVAALTRGGGSTYYADSVKGRFTISRDNAKNTVYLQMNSLKPEDTAVYYCAAQRSRLIRISSPYYGHDYWGQGTQVTVSS
  polyreactivity (PSR sort gate): low polyreactivity

## QVQLVESGGGLVQAGGSLRLSCAASGRTFIRNAMGWYRQAPGKERELVAAISRSGGRTYYADSVKGRFTISRDNAKNTVYLQMNSLKPEDTAVYYCAAGSYQRYAFDYWGQGTQVTVSS
  polyreactivity (PSR sort gate): high polyreactivity

## QVQLVESVGGLVQAGGSLRLSCAASGSTFYIYAMGWYRQAPGKERELVADINNSDSTYYADSVKGRFTISRDNAKITVYLQMYSLKPEDTAVYYCAAYDYYIGAYSYGGSDYDYWGQGTQVTVSS
  polyreactivity (PSR sort gate): low polyreactivity

## QVQHVESGGGLVQAGGSLRLSCAASGSIFWDNAMGWYRQAPGKERELVAAITSSGDTTYYADSVKGRFTISRDNAKNTVYLQMNSLKPEDTAVYYCAKVFGPTDYLTGTFKGDYWGQGTQVTVSS
  polyreactivity (PSR sort gate): low polyreactivity

## QVQLVESGGGLVQAGGSLRLSCAASGSTFDVNAMGWYRQAPGKERELVAAISFSGGSTYYADSVKGRFTISRDNAKNTVYLQMNSLKPEDTAVYYCADYDYWGQGTQVTVSS
  polyreactivity (PSR sort gate): low polyreactivity

## QVQLVESGGVLVQALGSLRLSCAASVITIDNYVMGWYRQAPGKERELVAAISIGGGTYYADSVKGRFTISRDNAKNTVYLQMNSRKPEDSAVYYCKARSDVSYWWGGYWGQGTQVTVSS
  polyreactivity (PSR sort gate): low polyreactivity

## QVQLVESGGGLVQAGGSLRLSCAASGLIFYRNAMGWYRQAPGKERELVAAIRFSTGSTYYADSVKGRFTISRDNAKNTVYLQMNSLKPEDTAVYYCAADRRYYWYNYWGQGTQVNVSS
  polyreactivity (PSR sort gate): high polyreactivity

## QVHLQESGSGLVQSGGSLRLTCAASGYISLGDNMGWYRQAPGKELEFVATISVGGITYYVDSVKGPFTISRDIEKNTVYLQMNSLKPEDTAVYYCASLDIYYFRYYYWGQGTQVTVSS
  polyreactivity (PSR sort gate): low polyreactivity

## QVQLEESGGGLVQAGGILRLSCAASGFIIRRNALGLYRKAAGQERELVATIRASGGRTYYADSVKGRFTISRDNAKNTVYLQMNSVKPEDTAVYYCAAFRWYKPHDYWGQGTQVTVSS
  polyreactivity (PSR sort gate): high polyreactivity

## QVQLVESGGGLVQAGGSLRLSCAASGRTFSDNAMGWYRQAPGKERELVAASSRSGGRTYYADSVKGRFTISRDNAKNTVYLQMNSLKPEDTAVYYCAAAPSVSGTRLYEYWGQGTQVTVSS
  polyreactivity (PSR sort gate): high polyreactivity

## QVQLVESGGGLVQAGGSLRLSCAASGSTFSFNAMGWYRQAPGKERELVAAIRWSGGSTYYADSVKGRFTISRDNAKNTVYLQMNSLKPEDTAVYYCATYWKGGRPPYRYYYWGQGTQVTVSS
  polyreactivity (PSR sort gate): high polyreactivity
